Among the data in article PMC5078793 are Kd values, retold here.

pKd: −log10 of the molar value.

The test deals with ADAMTS6 C-terminal region (human) (UniProt Q9UKP5). In words: SPR; Biacore; ADAMTS protein (full-length or C-terminal region) immobilised by amine coupling on CM5 (~3000 RU); analyte injected at 30 ul/min; 10 mM HEPES pH 7.4, 0.1 M NaCl, 0.5 mM CaCl2, 0.005% P20; 1:1 kinetics or equilibrium analysis. On the technique in general: In SPR one partner is held on a chip, and binding of the other changes the refractive index at the surface.
ADAMTS6 C-terminal region (human), sequence (Q9UKP5 558-1117): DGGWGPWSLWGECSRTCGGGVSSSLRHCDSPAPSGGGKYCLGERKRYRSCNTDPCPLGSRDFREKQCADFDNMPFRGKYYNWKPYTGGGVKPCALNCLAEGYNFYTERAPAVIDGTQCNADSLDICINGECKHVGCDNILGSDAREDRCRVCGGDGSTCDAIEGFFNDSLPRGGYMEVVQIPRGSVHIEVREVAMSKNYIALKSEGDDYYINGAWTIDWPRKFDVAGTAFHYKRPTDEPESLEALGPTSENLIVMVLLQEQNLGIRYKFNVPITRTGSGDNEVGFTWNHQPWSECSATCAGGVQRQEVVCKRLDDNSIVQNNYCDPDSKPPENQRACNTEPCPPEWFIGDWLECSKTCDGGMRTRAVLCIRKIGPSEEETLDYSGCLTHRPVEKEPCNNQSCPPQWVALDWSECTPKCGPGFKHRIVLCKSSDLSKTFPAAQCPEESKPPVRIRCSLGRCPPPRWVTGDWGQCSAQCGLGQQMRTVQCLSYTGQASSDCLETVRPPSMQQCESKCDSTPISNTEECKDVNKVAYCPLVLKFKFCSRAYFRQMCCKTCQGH

The term pKd denotes the Kd on a negative log10 scale, so that one unit is a factor of ten. High values mean a small Kd, low ones a large Kd.

For the substance cellular fibronectin (natural protein), the pKd was 8.01.
